In paper PMC5938751:

How the values were obtained:
[1] = tested on: N[C@@H](CCC(=O)NP(=O)(O)O)C(=O)O; experiment: purified protein; details: fixed 5.0 mM MgCTP, pH 8.0, 25 °C
[2] = tested on: Nc1ccn([C@@H]2O[C@H](COP(=O)(O)OP(=O)(O)NC(=O)CC[C@H](N)C(=O)O)[C@@H](O)[C@H]2O)c(=O)n1; experiment: purified protein; details: pH 8.0, 25 °C

Substance | Km [1] [µM] | kcat [1] [s⁻¹] | Km [2] [µM] | kcat [2] [s⁻¹]
Cj1416 (Campylobacter jejuni subsp. jejuni NCTC 11168 = ATCC 700819) | 120 ± 30 | 0.95 ± 0.1 | – | –
Cj1417 (Campylobacter jejuni subsp. jejuni NCTC 11168 = ATCC 700819) | – | – | 28 ± 3 | 0.567 ± 0.02
